T1: human angiotensinogen (Sigma), P01019
T1 chain: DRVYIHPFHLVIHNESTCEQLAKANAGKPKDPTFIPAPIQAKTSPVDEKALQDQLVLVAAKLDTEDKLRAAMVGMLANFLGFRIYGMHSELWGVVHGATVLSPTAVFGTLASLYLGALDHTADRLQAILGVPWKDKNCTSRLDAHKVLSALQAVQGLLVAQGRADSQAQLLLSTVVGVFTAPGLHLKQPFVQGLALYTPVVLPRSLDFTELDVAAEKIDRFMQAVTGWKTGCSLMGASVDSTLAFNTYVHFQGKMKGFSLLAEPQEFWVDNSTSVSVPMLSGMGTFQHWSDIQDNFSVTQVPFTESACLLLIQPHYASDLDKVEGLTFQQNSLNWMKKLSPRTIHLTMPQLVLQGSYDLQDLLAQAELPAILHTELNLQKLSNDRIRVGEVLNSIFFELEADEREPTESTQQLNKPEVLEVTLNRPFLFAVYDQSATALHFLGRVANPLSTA

B1: human renin of the human mast cell line HMC-1 (cells, lysate and releasate) (protein)
chain: LTLGNTTSSVILTNYMDTQYYGEIGIGTPPQTFKVVFDTGSSNVWVPSSKCSRLYTACVYHKLFDASDSSSYKHNGTELTLRYSTGTVSGFLSQDIITVGGITVTQMFGEVTEMPALPFMLAEFDGVVGMGFIEQAIGRVTPIFDNIISQGVLKEDVFSFYYNRDSENSQSLGGQIVLGGSDPQHYEGNFHYINLIKTGVWQIQMKGVSVGSSTLLCEDGCLALVDTGASYISGSTSSIEKLMEALGAKKRLFDYVVKCNEGPTLPDISFHLGGKEYTLTSADYVFQESYSSKKLCTLAIHAMDIPPPTGPTWALGATFIRKFYTEFDRRNNRIGFALAR

Legend:
[1] = target: angiotensin II receptor (AT1AR) transfected into human neuroblastoma SH-SY5Y cells (SH-SY5Y-AT1A cells); assay: cell-based or functional assay
[2] = target: guinea pig angiotensin type 1 receptor on cardiac sympathetic nerve endings (guinea pig); assay: cell-based or functional assay
[3] = target: T1, human angiotensinogen (Sigma), P01019

Molecule	release of [3H]MPP+ from SH-SY5Y-AT1A cells [1] [%]	norepinephrine release from guinea-pig cardiac sympathetic nerve endings [2] [%]	ANG I activity of HMC-1 releasate with 240 nM angiotensinogen, with or without BILA2157 [3]	ANG I formed (renin activity) by RIA [3]	ANG I formed (renin activity) by RIA, with or without BILA2157 (100 nM) [3]
angiotensin II (peptide)	20	27			
B1			about 70% of the ANG I activity measured in the presence of 240 nM angiotensinogen, is due to BILA2157-sensitive renin	The amount of ANG I formed increased with angiotensinogen concentration.	˜70% of the total ANG I formed originates from renin
